Source: the supplement of paper PMC10126150
± gives the standard deviation of the averaged measurements.

Tested on: ATP
Assay: switch fluorescence ratio, 500 uM ATP over buffer (Cy3 cluster intensity, sum of 5 cycles each) (fold (ratio)); higher = stronger signal-on switching upon ATP binding; sequences stand for … in TCGTCGGCAGCGTCAGATGTGTATAAGAGACAGTTTTTTTTTTTTTTTTTTTTTTTTT…TC
Conditions: aptamer strand: ATP DNA aptamer (quencher-CACCTGGGGGAGTATTGCGGAGGAAGG + anchor), 100 nM annealed; ATP concentration: 500 uM
Outline: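 Cy3-labelled switching-strand clusters on a modified Illumina MiSeq flow-cell were annealed to 100 nM quencher-labelled ATP aptamer and imaged first in selection buffer, then after 15 min with 500 uM ATP at 22 °C. NaOH stripping and re-annealing separated each of five buffer/ATP cycles, and clusters outside 100-1000 RFU were excluded. The fluorescence ratio sums target-cycle Cy3 intensity over buffer-cycle Cy3 intensity per cluster and averages it per switch-domain sequence.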
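Note: ATP exposure 15 min at 22 °C before imaging.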

Sequence	switch fluorescence ratio
TAGCATCTTT	0.98 ± 0.067
TAGCATGTAC	5.22 ± 0.65
TAGCATTGTG	1.02 ± 0.022
TAGCCAGCTC	0.996 ± 0.034
TAGCCGCTTT	1.065 ± 0.0087
TAGCGAAACT	1.14 ± 0.032
TAGCGATGCG	1.031 ± 0.0042
TAGCGCAGGC	0.996 ± 0.025
TAGCGGGCCG	1.01 ± 0.039
TAGCGGGGCA	0.996 ± 0.046
TAGCGGGTAC	1.28 ± 0.087
TAGCGGGTCA	0.966 ± 0.012
TAGCGGTTGT	0.999 ± 0.021
TAGCGTGTAG	1.02 ± 0.022
TAGCGTTAGG	1.029 ± 0.0049
TAGCGTTTTT	0.97 ± 0.018
TAGCTCGTTT	0.995 ± 0.038
TAGCTGGGGC	1.02 ± 0.037
TAGCTGTAAT	1.02 ± 0.046
TAGCTGTCAC	1.04 ± 0.04
TAGCTGTTGT	0.993 ± 0.027
TAGCTTTTTT	1.002 ± 0.0045
TAGGAAAAAG	0.975 ± 0.013
TAGGAATGGG	0.989 ± 0.034
TAGGACGCGG	1.04 ± 0.052
TAGGACTCAT	1.009 ± 0.0082

Sequence	switch fluorescence ratio
TAGGAGCAGG	1.09 ± 0.021
TAGGAGGCTA	0.976 ± 0.035
TAGGAGGTAT	1.01 ± 0.048
TAGGAGGTTT	1.067 ± 0.0013
TAGGAGTAAC	0.9812 ± 0.0037
TAGGAGTTAT	1.01 ± 0.04
TAGGATGCAG	0.957 ± 0.042
TAGGATGGCT	0.959 ± 0.072
TAGGATGGGT	0.99 ± 0.017
TAGGATGGTT	0.984 ± 0.013
TAGGATTCTC	0.979 ± 0.023
TAGGATTGGC	1.04 ± 0.018
TAGGCCTGGG	1 ± 0.0033
TAGGCGAGTT	0.98 ± 0.0021
TAGGCGGAGC	1.033 ± 0.0063
TAGGCGGATA	1.008 ± 0.0023
TAGGCGGGTG	1.03 ± 0.023
TAGGCGTACG	1.08 ± 0.006
TAGGCTAGGT	1.017 ± 0.0047
TAGGCTGAGG	1.002 ± 0.0063
TAGGCTGTAC	2.84 ± 1.6
TAGGCTTAGC	0.9671 ± 0.0069
TAGGCTTTTT	0.9925 ± 0.0075
TAGGGAAAAC	1.05 ± 0.12
TAGGGAAATT	1.04 ± 0.021
TAGGGACGTT	0.988 ± 0.013

Sequence	switch fluorescence ratio
TAGGGAGGGA	0.9801 ± 0.0069
TAGGGAGTCA	0.971 ± 0.019
TAGGGATAGT	0.9986 ± 0.0052
TAGGGATATA	0.985 ± 0.035
TAGGGATCCC	1.04 ± 0.028
TAGGGCAAGT	1.01 ± 0.016
TAGGGCACGG	1.02 ± 0.035
TAGGGCATTT	1.03 ± 0.056
TAGGGCCACG	1.01 ± 0.018
TAGGGCGGGG	0.988 ± 0.025
TAGGGCTTAA	0.993 ± 0.042
TAGGGGAAAT	0.994 ± 0.024
TAGGGGAACC	0.9693 ± 0.0092
TAGGGGACGT	0.992 ± 0.063
TAGGGGAGGC	0.984 ± 0.016
TAGGGGATAG	1.02 ± 0.032
TAGGGGCGGC	1.01 ± 0.056
TAGGGGCGGG	0.971 ± 0.025
TAGGGGGAAG	0.9792 ± 0.0033
TAGGGGGACG	1.04 ± 0.068
TAGGGGGATT	1.014 ± 0.0089
TAGGGGGCGT	0.987 ± 0.0032
TAGGGGGGAC	1.19 ± 0.34
TAGGGGGTCT	1.21 ± 0.47
TAGGGGTACT	1.41 ± 0.61
TAGGGGTATG	1.06 ± 0.096

Sequence	switch fluorescence ratio
TAGGGGTCTC	1.07 ± 0.038
TAGGGGTGGG	1.0453 ± 0.00085
TAGGGGTGTA	1 ± 0.04
TAGGGGTTGT	1.02 ± 0.028
TAGGGTAAGT	0.9905 ± 0.0089
TAGGGTATAT	0.986 ± 0.015
TAGGGTCGGT	1 ± 0.041
TAGGGTGAGT	1.02 ± 0.035
TAGGGTGTTG	1.01 ± 0.021
TAGGGTTTGT	0.989 ± 0.031
TAGGTACCAG	0.984 ± 0.025
TAGGTAGCTT	1.02 ± 0.021
TAGGTAGGGA	0.993 ± 0.018
TAGGTATGTG	1.03 ± 0.049
TAGGTCAGAA	0.989 ± 0.025
TAGGTCATTG	0.995 ± 0.025
TAGGTCGGTG	0.993 ± 0.011
TAGGTCTAGG	1 ± 0.023
TAGGTGCGGT	0.989 ± 0.015
TAGGTGCTTT	1.079 ± 0.0059
TAGGTGGCGG	0.9906 ± 0.0071
TAGGTGGTTT	0.989 ± 0.026
TAGGTGTAGG	1.01 ± 0.028
TAGGTGTGTG	0.984 ± 0.024
TAGGTTAAAA	0.9786 ± 0.0041
TAGGTTAAGG	1 ± 0.034

Sequence	switch fluorescence ratio
TAGGTTACCC	1.04 ± 0.046
TAGGTTATTA	0.9988 ± 0.0097
TAGGTTGCTT	1.02 ± 0.021
TAGGTTGGGT	0.992 ± 0.0089
TAGTAAAAAC	0.9938 ± 0.0061
TAGTAACATA	1.006 ± 0.0036
TAGTAATATT	1.11 ± 0.12
TAGTAATGTT	0.982 ± 0.025
TAGTAGACTG	1.01 ± 0.05
TAGTAGAGT	0.9637 ± 0.0076
TAGTAGATTC	1.005 ± 0.0054
TAGTAGCTGT	1.04 ± 0.089
TAGTAGGGTT	0.986 ± 0.021
TAGTAGGTAC	1.04 ± 0.025
TAGTAGTCGG	0.963 ± 0.036
TAGTAGTTAT	0.9858 ± 0.0052
TAGTATTCTG	0.986 ± 0.021
TAGTATTTGC	1.14 ± 0.13
TAGTCAGTCG	1.08 ± 0.11
TAGTCATTTG	0.962 ± 0.0097
TAGTCCGTAA	2.06 ± 0.035
TAGTCGGGTT	0.9613 ± 0.0059
TAGTCGTTTC	1.02 ± 0.035
TAGTCTGGT	0.999 ± 0.016
TAGTCTTTTT	1.03 ± 0.027
TAGTGACACG	1.03 ± 0.045

Sequence	switch fluorescence ratio
TAGTGAGGGA	0.992 ± 0.013
TAGTGCCGGT	0.993 ± 0.016
TAGTGCGTCG	0.942 ± 0.063
TAGTGCTTGG	0.9827 ± 0.0087
TAGTGGGTTT	1.01 ± 0.021
TAGTGGTTAG	0.991 ± 0.025
TAGTGTAGGT	1.03 ± 0.02
TAGTGTATTA	1.01 ± 0.018
TAGTGTCGGA	0.9914 ± 0.0035
TAGTTAATAT	1 ± 0.019
TAGTTAGTTT	1.02 ± 0.029
TAGTTCATGG	0.991 ± 0.019
TAGTTCGCTT	1.003 ± 0.0067
TAGTTGAATT	0.998 ± 0.014
TAGTTGACCG	1.12 ± 0.11
TAGTTGACTG	1.04 ± 0.072
TAGTTGATTC	1.01 ± 0.067
TAGTTGCGGC	1.01 ± 0.041
TAGTTGGGGG	1 ± 0.028
TAGTTGGTAC	0.9925 ± 0.0083
TAGTTGGTCG	1.02 ± 0.049
TAGTTGGTTG	0.974 ± 0.027
TAGTTGTTGC	0.977 ± 0.021
